Experimental findings from patent publication US5662885A, “Peptide derived radionuclide chelators” (Resolution Pharmaceuticals Inc., priority 1994, dated 1997) are described below.

Starred links: 1 amine or outer side, 2 acyl side, 3 side chain; linkers in the order of their positions; H or OH if unused. Non-standard residues stand in square brackets, D forms with d. No end group written: not given here. *: point of attachment. Cys(Acm) = CC(=O)NCSC[C@H](N[*:1])C(=O)[*:2]; Me2Gly = CN(C)CC(=O)*

Data set [1] deals with zymosan-induced focal inflammation in left hindleg of rats. In words: Rat inflammation study: in vivo imaging and biodistribution of Tc-99m labeled conjugates. Particulars: i.v. tail vein, 30 minutes, average of two rats; for Inflam:Uninfl (target to background ratio, inflamed:uninflamed muscle): zymosan-inflamed left leg vs right leg muscle.
Experimental: (§1) Rat inflammation studies were performed as follows. 2 male Wistar rats (Charles River, 200-250 g) were injected intramuscularly with (25 mg) zymosan, a yeast cell wall suspension, into their left hindlegs 24 hours before imaging. Focal inflammation in the leg was visually detectable after 1 day.
(§2) The rats were anaesthetized with somnitol (40 to 50 mg/kg), and the labeled conjugate solution (200 μL) was injected intravenously via the tail vein. Serial whole-body scintigrams were acquired at 30 minutes. The rats were then killed with anaesthesia overdose and samples of organs, urine, blood, inflamed muscle (left leg) and non-inflamed muscle (right leg) and inflammatory exudate (fluid) were weighed and counted in either a well-type gamma counter or in a gamma dose calibrator depending upon the organ. The dose calculations were made based on the assumption that the blood volume constituted 8% of body weight. The results of the conjugates represented in the table below are averages for two rats and are corrected for the residual dose in the tail.
For data set [2] the test system is unchanged. Particulars: rat, in vivo, iv.
Experimental: as §1, §2

For the substance “N,N-dimethylGly-Ser-Cys(Acm)-Gly-Thr-Lys-Pro-Pro-Arg-OH ([Me2Gly]S[Cys(Acm)]GTKPPR-OH; also: 99mTc label via N,N-dimethylGly-Ser-Cys(Acm) chelator) [N,N-dimethylGly-Ser-Cys(Acm)-GTKPPR-OH]”, in data set [1], the “Fluid:Blood (inflammatory exudate:blood)” value was 1.9 and the “Inflam:Uninfl (target to background ratio, inflamed:uninflamed muscle)” value is reported as 5.3. Further, in data set [2], the “GI Tract (% dose)” value came to 2.8 % dose, the “Liver (% dose)” value is given as 2.4 % dose and the “Urine (% dose)” value amounted to 63.5 % dose.
The like results for “N,N-dimethylGly-Thr-Cys(Acm)-Gly-Thr-Lys-Pro-Pro-Arg ([Me2Gly]T[Cys(Acm)]GTKPPR; also: 99mTc label via N,N-dimethylGly/Cys(Acm) chelator) [N,N-dimethylGly-Thr-Cys(Acm)-GTKPPR-OH]” were, in that order, 1.6, 4.6, 2.5 % dose, 2.4 % dose and 68.5 % dose.
